Test system: Bacillus subtilis DB104 (SP-AmyQ fusion secretion)
Experiment: AmyQ secretion efficiency, weighted average sort bin (1 = best secretion, 10 = worst) (bin number (weighted average, 1-10)); higher = lower secretion efficiency
How it was run: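 B. subtilis DB104 library expressing mature AmyQ fused to designed signal peptides (amyE-integrated) was encapsulated at about 0.3 cells per ~65 nL alginate bead with fluorescein-starch, grown about 13 h at room temperature and nile red stained. Occupied beads were sorted by large-particle flow cytometry into 10 equally populated bins by green/red fluorescence ratio, and each bin's amplicons were Illumina-sequenced. Secretion score is the read-frequency-weighted average bin number, normalised to beads per bin, excluding low-abundance sequences.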

Sequence	AmyQ secretion efficiency
MKKELLASLVLCLSLSPLVSTNEVFAAEE	2.07
MMKKLFHSTLIVLLFFSFFGVQPVASSASTIHAKKQ	2.41
MRKKRVITCVMAASLTLGSLLPAGYVSAKED	3.76
MLCVMMLLFSAIASFPVSAQTKDQ	6.25
MLKKKWMVGLLAGCLAAGGFSYNSFATEN	5.59
MKLAKRVSALTPSTTLAITAKMKEL	6.79
MKLSVKIAGVLTVAAAAMTAKMYFTAKGN	7.66
MITTIVITCVMAASLTLGSLLPAGYASAKED	4.06
MKWMCSICCAAVLLAGGAGQAEAV	3.36
MLTKRLLTIYIMLLGLIAWFPGAIQAEEK	2.08
MFNRLFRVCFLAALIMAFTLPNSWYAQKP	7.03
MGLGKKLSVAVAASFMSLSISLPGVQFAEG	4.64
MKKRLIAPMLLSAASLAFFAMSGSEQAAAY	3.75
MHQIRAAGAVCLAVVLIAGCRFNEDQHQAEGENT	6.4
MKKIGLLFMLCLAALFTIGFPAQQLDAAEA	2.04
MKKGIIRFLLVSFVLFFALSTGITGKQAAPA	5.05
MKKRRKKLLAAGIIGLLTVSIASPSFAAEK	3.36
MKLWMRKTLVVLFTIVTFGLVIATFTTVAVSPPAALMADKP	4.44
MNRRKILLSSALSLGMLVSAAPVLATSS	2.39
MKKRFSLIMMTGLLFGLTSPAFARKK	7.01
MSKVLMAFIICLSLILSVLAAPPSGAKAESV	2.82
MTKTIFAFLTGLMMFGTITAASASPD	3.99
MKVPKTMLLSTAAGLLLSLTATSESAHYV	6.28
MKKWIYVVLVLSIAGIGGFSVHTASS	6.85
MRMLWRSLALCGLALTLAKRRCAQAAEP	6.64
MFNRLFRVCFLAALIMAFTLPNSVYQQKP	5.8

Sequence	AmyQ secretion efficiency
MKKWMITIAMLILAGIALFVFIDPLKSHKT	6.61
MTKKAWFLPLVCVLLISGWLAPAASASFQTT	2.38
MPYLKRVLLLLVTGLFMSLFAVTATQSAQTG	3.84
MKKKIIRFLLVSFVLFFALSTGITGVQAAPA	2.57
MKKKQVMLALTAAAGLGLTALHSAPACKAAPL	2.29
MKRTWNVCLTALLSVLLVAGSVGFVAEAKKP	3.4
MKKQKKIAGVLTVAAAAMTAKMYATAKGN	7.17
MKLKKRVSMFLVALTMCGGLFVTPAKYVKT	5.18
MKKLALTAAAGLGLTALHSAPAAKAAPL	3.02
MKVPKTMLLSTAAGLLLSLTATSISAHYV	6.77
MPYLKRVLLLLVTGLAVTATASAQTG	1.97
MLKKKWMVGLLAGCLAAGGFSYNQFATEN	6.91
MKSKGSIMACLILFSFTITTFINTETRSAFSN	8.47
MTMLRKIIGWILLLCIIPLFAFTVIASAKEV	4.98
MFKKLLLATSALTFSLSLVLRRKKKHAKAQEV	5.87
MKIRKLIFNMFLILLSSALSFGMLISAVPALAAGT	3.62
MKKVLMAFIICLSLILSVLAAPPSGVKAESV	1.85
MNKFLKSNFRFLLAAALGISLLVLFVIFITFASSNFIKASND	4.18
MKRKRKRIMIFLTSFMLLAMTGQTALAKDV	3.59
MKQGKFSVKKKRKRMLTLVVAPKEKAEAASS	5.83
MLKKKWMVGLLAGCLAAGGFSYNMFATEN	6.41
MKNMSCKLVVSVTLFFSFLTIGPLAHCQNS	1.91
MKKGIIRFLLVSFVLFFALFAFIAFGGGTTVQAAPA	1.86
MKKRLIGFLVLVPALIMSGITLIEANPY	7.07
MGSLTKTSLLLAGLCTAAQMVFVTHASAEES	4.02
MKKLLAAGIIGLLTVRRRKKKSFAAEK	7.21
